Reference: IntAct's records for PubMed 26711270

B1: Protein ecdysoneless homolog (Homo sapiens), O95905 (parent)
chain: MEETMKLATMEDTVEYCLFLIPDESRDSDKHKEILQKYIERIITRFAPMLVPYIWQNQPFNLKYKPGKGGVPAHMFGVTKFGDNIEDEWFIVYVIKQITKEFPELVARIEDNDGEFLLIEAADFLPKWLDPENSTNRVFFCHGELCIIPAPRKSGAESWLPTTPPTIPQALNIITAHSEKILASESIRAAVNRRIRGYPEKIQASLHRAHCFLPAGIVAVLKQRPRLVAAAVQAFYLRDPIDLRACRVFKTFLPETRIMTSVTFTKCLYAQLVQQRFVPDRRSGYRLPPPSDPQYRAHELGMKLAHGFEILCSKCSPHFSDCKKSLVTASPLWASFLESLKKNDYFKGLIEGSAQYRERLEMAENYFQLSVDWPESSLAMSPGEEILTLLQTIPFDIEDLKKEAANLPPEDDDQWLDLSPDQLDQLLQEAVGKKESESVSKEEKEQNYDLTEVSESMKAFISKVSTHKGAELPREPSEAPITFDADSFLNYFDKILGPRPNESDSDDLDDEDFECLDSDDDLDFETHEPGEEASLKGTLDNLKSYMAQMDQELAHTCISKSFTTRNQVEPVSQTTDNNSDEEDSGTGESVMAPVDVDLNLVSNILESYSSQAGLAGPASNLLQSMGVQLPDNTDHRPTSKPTKN

Variants of: B1
Conditions: with pihd1_human PIH1D1, Q9NWS0
pihd1_human PIH1D1, Q9NWS0, sequence (Q9NWS0 whole entry): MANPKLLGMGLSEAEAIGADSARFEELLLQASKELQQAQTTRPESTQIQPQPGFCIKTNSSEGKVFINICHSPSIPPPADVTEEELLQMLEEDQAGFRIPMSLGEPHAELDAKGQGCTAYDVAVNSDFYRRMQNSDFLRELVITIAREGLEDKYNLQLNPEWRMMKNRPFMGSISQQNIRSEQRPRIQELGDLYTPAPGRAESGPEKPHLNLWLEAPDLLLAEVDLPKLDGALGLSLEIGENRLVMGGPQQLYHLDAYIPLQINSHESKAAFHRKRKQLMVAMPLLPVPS

effect of a mutation on the interaction | Variant
disrupting interaction | S503A;S505A;S518A;S572A;S579A;S584A
disrupting interaction | S503D;S505D;S518D;S572D;S579D;S584D
disrupting interaction | S503A;S505A;S518A
